Where “and” joins values, the source holds several entries; their conditions need not be identical. Equal entries are not always repeated. Values belong to the binder of their own block, whether it stands above or below them. Where no end group is shown, it is not given here.
Tests used:
ATF2 (human) = ATF2 (human) (UniProt P15336); test: FRET or BRET; direct-binding FRET in 384-well plates; rhodamine-labelled design (acceptor) titrated 0 to 1 uM into 10 nM fluorescein-labelled bZIP (donor); 150 mM KCl, 50 mM potassium phosphate pH 7.4, 0.1% Tween-20, 0.1% BSA; 37 °C
MAFF (human) [1] = biological target: MAFF (human) (UniProt Q9ULX9); test: as above
CREB1 (human) = CREB1 (human) (UniProt P16220); test: as above
BACH1 = BACH1 (Homo sapiens, UniProt O14867); test: FRET or BRET; direct-binding FRET in 384-well plates; rhodamine-labelled design (acceptor) titrated 0 to 1 uM into 10 nM fluorescein-labelled bZIP (donor); 150 mM KCl, 50 mM potassium phosphate pH 7.4, 0.1% Tween-20, 0.1% BSA; 4 °C
MAFF (human) [2] = biological target: MAFF (human) (UniProt Q9ULX9); test: as above
MAF = MAF (Homo sapiens, UniProt O75444); test: as above
ATF6B = ATF6B (Homo sapiens, UniProt Q99941); test: as above
NFE2L3 (human) = NFE2L3 (human) (UniProt Q9Y4A8); test: as above
FOS = FOS (Homo sapiens, UniProt P01100); test: as above
NFIL3 (human) = NFIL3 (human) (UniProt Q16649); test: as above
MAFB = MAFB (Homo sapiens, UniProt Q9Y5Q3); test: as above
MAFG = MAFG (Homo sapiens, UniProt O15525); test: as above
NFE2L1 = NFE2L1 (Homo sapiens, UniProt Q14494); test: FRET or BRET; direct-binding FRET in 384-well plates; rhodamine-labelled design (acceptor) titrated 0 to 1 uM into 10 nM fluorescein-labelled bZIP (donor); 150 mM KCl, 50 mM potassium phosphate pH 7.4, 0.1% Tween-20, 0.1% BSA; 37 °C
BATF3 (human) = BATF3 (human) (UniProt Q9NR55); test: as above
JUN = JUN (Homo sapiens, UniProt P05412); test: as above
[3] = biological target: Activating Transcription Factor (ATF) 3 (human) (UniProt P18847); test: FRET or BRET; direct-binding FRET in 384-well plates; rhodamine-labelled design (acceptor) titrated 0 to 1 uM into 10 nM fluorescein-labelled bZIP (donor); 150 mM KCl, 50 mM potassium phosphate pH 7.4, 0.1% Tween-20, 0.1% BSA; 4 °C
BACH2 = BACH2 (Homo sapiens, UniProt Q9BYV9); test: as above
[4] = biological target: ATF5-d1 labeled at the C-terminus; test: FRET or BRET; direct-binding FRET of the designed peptide with itself (row 'homodimer'; dimer to monomers); acceptor-labelled design titrated into donor-labelled design by note 1 of the tables; 23 °C

Chain of NFIL3 (human) (Q16649 whole entry): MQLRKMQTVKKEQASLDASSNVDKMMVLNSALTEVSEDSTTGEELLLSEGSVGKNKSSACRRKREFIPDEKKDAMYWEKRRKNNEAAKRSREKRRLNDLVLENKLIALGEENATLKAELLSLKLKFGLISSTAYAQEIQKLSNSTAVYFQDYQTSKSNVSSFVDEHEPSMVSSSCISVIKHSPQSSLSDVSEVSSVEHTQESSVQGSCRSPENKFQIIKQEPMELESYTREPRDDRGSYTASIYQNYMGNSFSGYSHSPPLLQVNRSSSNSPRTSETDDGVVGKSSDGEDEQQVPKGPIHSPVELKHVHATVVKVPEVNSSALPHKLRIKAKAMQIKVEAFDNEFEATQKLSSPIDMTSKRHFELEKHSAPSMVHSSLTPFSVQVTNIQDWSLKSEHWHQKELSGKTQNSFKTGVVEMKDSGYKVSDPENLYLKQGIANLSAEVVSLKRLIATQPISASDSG
Chain of MAFF (human) (Q9ULX9 whole entry): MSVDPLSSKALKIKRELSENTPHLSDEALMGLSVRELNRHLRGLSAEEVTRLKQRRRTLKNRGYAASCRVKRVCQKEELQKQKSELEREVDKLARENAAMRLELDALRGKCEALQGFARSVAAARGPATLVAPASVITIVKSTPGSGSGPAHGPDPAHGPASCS
Chain of CREB1 (human) (P16220 whole entry): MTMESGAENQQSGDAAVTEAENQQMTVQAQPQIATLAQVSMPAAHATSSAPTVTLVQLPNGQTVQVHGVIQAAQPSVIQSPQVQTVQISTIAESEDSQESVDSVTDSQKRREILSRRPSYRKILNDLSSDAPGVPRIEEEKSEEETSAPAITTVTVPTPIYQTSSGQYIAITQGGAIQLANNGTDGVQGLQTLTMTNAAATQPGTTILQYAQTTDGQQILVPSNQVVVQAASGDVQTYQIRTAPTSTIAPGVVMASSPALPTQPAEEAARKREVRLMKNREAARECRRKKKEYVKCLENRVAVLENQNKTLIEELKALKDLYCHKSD
Chain of ATF6B (Q99941 whole entry): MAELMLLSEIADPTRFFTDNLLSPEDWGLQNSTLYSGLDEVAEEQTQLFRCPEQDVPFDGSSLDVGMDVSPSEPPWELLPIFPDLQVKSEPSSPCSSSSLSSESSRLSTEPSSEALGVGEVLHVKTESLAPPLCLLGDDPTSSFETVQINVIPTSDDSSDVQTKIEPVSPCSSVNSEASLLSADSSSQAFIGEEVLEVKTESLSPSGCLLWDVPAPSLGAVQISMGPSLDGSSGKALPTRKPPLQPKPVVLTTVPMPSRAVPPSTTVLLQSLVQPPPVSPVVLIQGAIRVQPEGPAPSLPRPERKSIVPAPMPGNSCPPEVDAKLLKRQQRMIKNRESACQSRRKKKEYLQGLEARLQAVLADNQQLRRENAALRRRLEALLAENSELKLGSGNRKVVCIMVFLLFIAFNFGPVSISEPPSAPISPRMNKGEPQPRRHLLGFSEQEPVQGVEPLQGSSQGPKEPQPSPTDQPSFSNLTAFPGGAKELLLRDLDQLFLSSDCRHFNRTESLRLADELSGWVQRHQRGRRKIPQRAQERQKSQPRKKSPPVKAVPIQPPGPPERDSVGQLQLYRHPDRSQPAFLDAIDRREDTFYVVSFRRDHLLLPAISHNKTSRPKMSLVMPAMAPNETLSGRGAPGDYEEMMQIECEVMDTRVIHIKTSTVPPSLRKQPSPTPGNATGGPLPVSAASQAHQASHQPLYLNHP
Chain of NFE2L1 (Q14494 whole entry): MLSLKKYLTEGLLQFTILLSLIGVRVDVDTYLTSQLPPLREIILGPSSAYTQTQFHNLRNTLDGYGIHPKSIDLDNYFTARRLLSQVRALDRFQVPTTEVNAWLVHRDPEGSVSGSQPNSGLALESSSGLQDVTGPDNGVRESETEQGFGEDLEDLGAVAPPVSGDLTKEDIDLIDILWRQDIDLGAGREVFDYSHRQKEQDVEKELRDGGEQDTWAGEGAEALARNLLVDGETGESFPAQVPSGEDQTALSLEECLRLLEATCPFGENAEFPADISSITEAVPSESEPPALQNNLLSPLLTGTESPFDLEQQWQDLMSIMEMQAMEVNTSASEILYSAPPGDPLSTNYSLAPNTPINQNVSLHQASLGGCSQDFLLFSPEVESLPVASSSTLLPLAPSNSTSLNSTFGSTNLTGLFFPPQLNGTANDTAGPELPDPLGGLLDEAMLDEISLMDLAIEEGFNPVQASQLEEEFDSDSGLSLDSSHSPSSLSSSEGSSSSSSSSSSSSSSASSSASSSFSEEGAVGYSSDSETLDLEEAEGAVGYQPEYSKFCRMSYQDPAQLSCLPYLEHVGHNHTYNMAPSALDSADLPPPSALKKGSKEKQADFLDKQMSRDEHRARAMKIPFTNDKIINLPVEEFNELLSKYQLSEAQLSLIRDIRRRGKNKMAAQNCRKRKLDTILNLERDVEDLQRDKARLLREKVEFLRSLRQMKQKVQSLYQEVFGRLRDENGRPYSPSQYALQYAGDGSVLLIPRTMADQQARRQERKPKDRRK
Chain of Activating Transcription Factor (ATF) 3 (human) (P18847 whole entry): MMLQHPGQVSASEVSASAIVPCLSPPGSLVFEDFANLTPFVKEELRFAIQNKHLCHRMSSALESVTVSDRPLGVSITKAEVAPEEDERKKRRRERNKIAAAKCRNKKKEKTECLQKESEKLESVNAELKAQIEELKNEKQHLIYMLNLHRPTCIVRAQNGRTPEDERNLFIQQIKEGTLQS
Chain of NFE2L3 (human) (Q9Y4A8 whole entry): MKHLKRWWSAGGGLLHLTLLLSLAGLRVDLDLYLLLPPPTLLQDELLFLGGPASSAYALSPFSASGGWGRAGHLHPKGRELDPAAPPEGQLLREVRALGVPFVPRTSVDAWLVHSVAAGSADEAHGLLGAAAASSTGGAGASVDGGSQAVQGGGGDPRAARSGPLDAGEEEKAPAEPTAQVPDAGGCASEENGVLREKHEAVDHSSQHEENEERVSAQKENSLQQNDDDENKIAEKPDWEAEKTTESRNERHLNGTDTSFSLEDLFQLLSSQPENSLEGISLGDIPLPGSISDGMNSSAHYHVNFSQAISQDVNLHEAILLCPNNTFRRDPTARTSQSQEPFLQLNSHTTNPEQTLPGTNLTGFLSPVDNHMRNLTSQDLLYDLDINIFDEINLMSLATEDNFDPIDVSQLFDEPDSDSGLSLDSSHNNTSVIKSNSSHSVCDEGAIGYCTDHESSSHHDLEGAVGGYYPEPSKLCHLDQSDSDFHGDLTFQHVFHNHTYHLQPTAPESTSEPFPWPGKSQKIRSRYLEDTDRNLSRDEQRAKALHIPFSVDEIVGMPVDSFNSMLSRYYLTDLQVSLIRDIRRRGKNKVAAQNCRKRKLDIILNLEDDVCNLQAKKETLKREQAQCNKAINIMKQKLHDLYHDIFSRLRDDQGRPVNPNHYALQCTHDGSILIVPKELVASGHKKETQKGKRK
Chain of MAF (O75444 whole entry): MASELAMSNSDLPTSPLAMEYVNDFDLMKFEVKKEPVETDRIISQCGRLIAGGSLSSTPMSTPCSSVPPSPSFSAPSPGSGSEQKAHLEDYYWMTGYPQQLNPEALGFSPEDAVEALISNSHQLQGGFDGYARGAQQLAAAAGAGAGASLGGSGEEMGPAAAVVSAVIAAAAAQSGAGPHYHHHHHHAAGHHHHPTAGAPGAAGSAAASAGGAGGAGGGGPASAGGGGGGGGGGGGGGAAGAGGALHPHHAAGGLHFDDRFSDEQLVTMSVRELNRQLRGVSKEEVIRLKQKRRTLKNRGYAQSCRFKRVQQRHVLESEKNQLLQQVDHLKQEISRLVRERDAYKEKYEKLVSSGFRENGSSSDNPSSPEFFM
Chain of ATF2 (human) (P15336 whole entry): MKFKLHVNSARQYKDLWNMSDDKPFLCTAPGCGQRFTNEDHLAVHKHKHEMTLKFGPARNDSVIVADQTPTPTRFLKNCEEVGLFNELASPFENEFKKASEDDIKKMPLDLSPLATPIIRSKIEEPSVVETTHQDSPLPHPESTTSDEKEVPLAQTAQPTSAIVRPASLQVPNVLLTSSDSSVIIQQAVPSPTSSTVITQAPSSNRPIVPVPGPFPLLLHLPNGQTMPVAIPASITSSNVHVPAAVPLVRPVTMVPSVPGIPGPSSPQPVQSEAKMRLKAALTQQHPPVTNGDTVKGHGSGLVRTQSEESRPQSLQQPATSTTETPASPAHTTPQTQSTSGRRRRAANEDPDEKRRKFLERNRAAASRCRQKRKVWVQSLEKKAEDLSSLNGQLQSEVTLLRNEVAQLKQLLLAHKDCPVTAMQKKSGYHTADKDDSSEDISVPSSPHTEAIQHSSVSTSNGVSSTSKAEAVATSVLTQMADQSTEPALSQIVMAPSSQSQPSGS
Chain of FOS (P01100 whole entry): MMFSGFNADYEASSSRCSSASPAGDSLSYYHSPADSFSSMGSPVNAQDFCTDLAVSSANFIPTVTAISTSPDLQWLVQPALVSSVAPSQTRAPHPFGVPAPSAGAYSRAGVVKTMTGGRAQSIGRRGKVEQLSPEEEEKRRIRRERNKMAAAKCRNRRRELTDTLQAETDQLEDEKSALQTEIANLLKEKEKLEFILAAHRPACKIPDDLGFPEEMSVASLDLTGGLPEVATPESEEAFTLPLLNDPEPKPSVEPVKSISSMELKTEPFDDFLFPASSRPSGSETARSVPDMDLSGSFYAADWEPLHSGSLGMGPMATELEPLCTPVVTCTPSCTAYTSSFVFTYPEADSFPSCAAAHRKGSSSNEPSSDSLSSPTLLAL
Chain of BATF3 (human) (Q9NR55 whole entry): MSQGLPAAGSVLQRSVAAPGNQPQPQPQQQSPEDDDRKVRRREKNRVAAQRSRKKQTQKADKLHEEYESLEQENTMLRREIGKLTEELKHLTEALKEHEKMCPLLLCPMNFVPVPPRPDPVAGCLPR
Chain of MAFG (O15525 whole entry): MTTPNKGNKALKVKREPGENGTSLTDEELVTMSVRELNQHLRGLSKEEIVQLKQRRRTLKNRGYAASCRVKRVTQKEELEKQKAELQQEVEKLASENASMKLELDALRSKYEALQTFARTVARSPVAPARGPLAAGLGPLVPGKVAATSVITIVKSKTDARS

Kd (ATF2 (human)): > 5000 nM
Kd (MAFF (human) [1]): 327 nM
Kd (CREB1 (human)): > 5000 nM
Kd (BACH1): > 5000 nM
Kd (MAFF (human) [2]): > 5000 nM
Kd (MAF): > 5000 nM
Kd (ATF6B): 1000 nM
Kd (NFE2L3 (human)): 1000 nM
Kd (FOS): 1000 nM
Kd (NFIL3 (human)): 22.8 nM and 23.3 nM and 22.6 nM
Kd (MAFB): > 5000 nM
Kd (MAFG): 1000 nM
B1: ATF4-d1 labeled at the C-terminus (designed binder)
chain: GESKEYKKGSGSNQIKTLRTRLSKLRKDNLQLEKDIANLERKAKDLRAEKEQLEYELGC
modifications: also: C59 label by assay: Rhodamine Red C2-maleimide or fluorescein-5-maleimide
notes: solubility linker after the His6 tag; added to the C-terminus for labeling; one molecule for the rhodamine- and the fluorescein-labelled form; the assay tells which label stood there; also called ATF4-d1-Rhodamine; ATF4-d1-FITC; source: E. coli RP3098, purified (Ni-NTA under denaturing conditions, reverse-phase HPLC)

Kd (NFE2L1): > 5000 nM
Kd (BATF3 (human)): > 5000 nM
Kd (JUN): > 5000 nM
Kd [3]: > 5000 nM
Kd (BACH2): > 5000 nM
Kd [4]: 1000 nM
B2: ATF5-d1 labeled at the C-terminus (designed binder)
chain: GESKEYKKGSGSKRIAYLRQRIAELRNENHVLESRIQRMEKEKDALQQDRDHLEYELGC(Rhodamine Red C2‑maleimide)
modifications: not fully specified
